How the values were obtained:
CD34 = CD34 (UniProt P28906 32-290); assay: EMSA; 10 mM PBS buffer, 37 °C, various ratios and times; native PAGE (6 % or 10 % tris-borate); pH not given; details: label: P32; blunt
SLAMF5 (CD84) = target: T1, SLAMF5 (CD84) (UniProt Q9UIB8 22-225); assay: as above; details: label: P32; blunt
T1 sequence: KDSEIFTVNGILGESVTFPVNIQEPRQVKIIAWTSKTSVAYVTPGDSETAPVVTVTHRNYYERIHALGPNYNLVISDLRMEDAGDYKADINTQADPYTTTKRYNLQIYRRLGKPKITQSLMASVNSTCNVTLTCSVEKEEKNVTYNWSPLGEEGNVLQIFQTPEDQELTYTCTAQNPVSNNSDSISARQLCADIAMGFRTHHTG

Sequence of CD34 (P28906 32-290): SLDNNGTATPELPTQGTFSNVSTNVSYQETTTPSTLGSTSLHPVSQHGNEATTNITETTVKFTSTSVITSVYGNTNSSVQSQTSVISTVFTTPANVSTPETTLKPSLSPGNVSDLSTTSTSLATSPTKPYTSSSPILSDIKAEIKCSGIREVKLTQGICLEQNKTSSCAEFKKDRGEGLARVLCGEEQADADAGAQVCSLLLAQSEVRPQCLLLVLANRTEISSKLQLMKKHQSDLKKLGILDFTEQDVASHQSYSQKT

B1: (TTAGGG)9 telomeric repeat, 54 bp (dsDNA)
DNA 1: TTAGGGTTAGGGTTAGGGTTAGGGTTAGGGTTAGGGTTAGGGTTAGGGTTAGGG
DNA 2: CCCTAACCCTAACCCTAACCCTAACCCTAACCCTAACCCTAACCCTAACCCTAA
- binding result (CD34): binds
- binding result (SLAMF5 (CD84)): binds
